Experimental data published in article PMC12381156.

Target: G protein-coupled bile acid receptor 1 (GPBAR1), full-length human, with N-terminal FLAG and BRIL (human) (UniProt Q8TDU6)
Assay: mass photometry; samples in 20 mM HEPES, 150 mM NaCl, 0.02%/0.002% LMNG/CHS, drop-diluted in PBS to 10 nM (apo-GPBAR1) and 30 nM (GPBAR1/Gs complex with P395 and Nb35); room temperature (18 °C)

Chain of UniProt Q8TDU6 (Q8TDU6 whole entry): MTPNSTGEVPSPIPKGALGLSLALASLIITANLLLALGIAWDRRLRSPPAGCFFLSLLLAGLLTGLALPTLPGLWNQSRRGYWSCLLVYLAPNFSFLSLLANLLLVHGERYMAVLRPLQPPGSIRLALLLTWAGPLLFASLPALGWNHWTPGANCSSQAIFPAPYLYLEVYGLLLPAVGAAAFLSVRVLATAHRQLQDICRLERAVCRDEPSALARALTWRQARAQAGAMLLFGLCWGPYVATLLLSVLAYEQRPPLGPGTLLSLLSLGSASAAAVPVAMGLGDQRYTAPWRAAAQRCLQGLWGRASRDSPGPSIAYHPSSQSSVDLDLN

- stoichiometry N: 1
Substance: Gs heterotrimer (Gαs, Gβ1, Gγ2) (from UniProt P63096 1-18; P63092 16-394; P62873 2-340; P59768 1-71) (complex)
